Assay results published in patent US20130157929A1, “GLUCAGON ANALOGUES” (ZEALAND PHARMA A/S, published 2013).
Starred links: 1 amine or outer side, 2 acyl side, 3 side chain; linkers in the order of their positions; H or OH if unused. Non-standard residues stand in square brackets, D forms with d. Groups on a side chain read outwards from the residue. *: point of attachment. γGlu = O=C(O)[C@H](CCC(=O)[*:2])N[*:1]; Palmitoyl = CCCCCCCCCCCCCCCC(=O)*; Aib = CC(C)(N)C(=O)O

B1: Compound 4 (peptide)
peptide: H-H[Aib]PGTFTSDYSKYLDSK([γGlu-Palmitoyl])AAHDFVEWLLSA-NH2
SMILES: CCCCCCCCCCCCCCCC(=O)N[C@@H](CCC(=O)NCCCC[C@H](NC(=O)[C@H](CO)NC(=O)[C@H](CC(=O)O)NC(=O)[C@H](CC(C)C)NC(=O)[C@H](Cc1ccc(O)cc1)NC(=O)[C@H](CCCCN)NC(=O)[C@H](CO)NC(=O)[C@H](Cc1ccc(O)cc1)NC(=O)[C@H](CC(=O)O)NC(=O)[C@H](CO)NC(=O)[C@@H](NC(=O)[C@H](Cc1ccccc1)NC(=O)[C@@H](NC(=O)CNC(=O)[C@@H]1CCCN1C(=O)C(C)(C)NC(=O)[C@@H](N)Cc1c[nH]cn1)[C@@H](C)O)[C@@H](C)O)C(=O)N[C@@H](C)C(=O)N[C@@H](C)C(=O)N[C@@H](Cc1c[nH]cn1)C(=O)N[C@@H](CC(=O)O)C(=O)N[C@@H](Cc1ccccc1)C(=O)N[C@H](C(=O)N[C@@H](CCC(=O)O)C(=O)N[C@@H](Cc1c[nH]c2ccccc12)C(=O)N[C@@H](CC(C)C)C(=O)N[C@@H](CC(C)C)C(=O)N[C@@H](CO)C(=O)N[C@@H](C)C(N)=O)C(C)C)C(=O)O
B2: Compound 5 (peptide)
peptide: H-H[Aib]HGTFTSDYSKYLDSK([γGlu-Palmitoyl])AAHEFVEWLLEA-NH2
SMILES: CCCCCCCCCCCCCCCC(=O)N[C@@H](CCC(=O)NCCCC[C@H](NC(=O)[C@H](CO)NC(=O)[C@H](CC(=O)O)NC(=O)[C@H](CC(C)C)NC(=O)[C@H](Cc1ccc(O)cc1)NC(=O)[C@H](CCCCN)NC(=O)[C@H](CO)NC(=O)[C@H](Cc1ccc(O)cc1)NC(=O)[C@H](CC(=O)O)NC(=O)[C@H](CO)NC(=O)[C@@H](NC(=O)[C@H](Cc1ccccc1)NC(=O)[C@@H](NC(=O)CNC(=O)[C@H](Cc1c[nH]cn1)NC(=O)C(C)(C)NC(=O)[C@@H](N)Cc1c[nH]cn1)[C@@H](C)O)[C@@H](C)O)C(=O)N[C@@H](C)C(=O)N[C@@H](C)C(=O)N[C@@H](Cc1c[nH]cn1)C(=O)N[C@@H](CCC(=O)O)C(=O)N[C@@H](Cc1ccccc1)C(=O)N[C@H](C(=O)N[C@@H](CCC(=O)O)C(=O)N[C@@H](Cc1c[nH]c2ccccc12)C(=O)N[C@@H](CC(C)C)C(=O)N[C@@H](CC(C)C)C(=O)N[C@@H](CCC(=O)O)C(=O)N[C@@H](C)C(N)=O)C(C)C)C(=O)O
B3: Compound 7 (peptide)
peptide: H-H[Aib]EGTFTSDYSKYLDSK([γGlu-Palmitoyl])AAHDFVEWLLSA-NH2
SMILES: CCCCCCCCCCCCCCCC(=O)N[C@@H](CCC(=O)NCCCC[C@H](NC(=O)[C@H](CO)NC(=O)[C@H](CC(=O)O)NC(=O)[C@H](CC(C)C)NC(=O)[C@H](Cc1ccc(O)cc1)NC(=O)[C@H](CCCCN)NC(=O)[C@H](CO)NC(=O)[C@H](Cc1ccc(O)cc1)NC(=O)[C@H](CC(=O)O)NC(=O)[C@H](CO)NC(=O)[C@@H](NC(=O)[C@H](Cc1ccccc1)NC(=O)[C@@H](NC(=O)CNC(=O)[C@H](CCC(=O)O)NC(=O)C(C)(C)NC(=O)[C@@H](N)Cc1c[nH]cn1)[C@@H](C)O)[C@@H](C)O)C(=O)N[C@@H](C)C(=O)N[C@@H](C)C(=O)N[C@@H](Cc1c[nH]cn1)C(=O)N[C@@H](CC(=O)O)C(=O)N[C@@H](Cc1ccccc1)C(=O)N[C@H](C(=O)N[C@@H](CCC(=O)O)C(=O)N[C@@H](Cc1c[nH]c2ccccc12)C(=O)N[C@@H](CC(C)C)C(=O)N[C@@H](CC(C)C)C(=O)N[C@@H](CO)C(=O)N[C@@H](C)C(N)=O)C(C)C)C(=O)O
B4: Compound 8 (peptide)
peptide: H-H[Aib]QATFTSDYSKYLDSK([γGlu-Palmitoyl])AAHDFVEWLLSA-NH2
SMILES: CCCCCCCCCCCCCCCC(=O)N[C@@H](CCC(=O)NCCCC[C@H](NC(=O)[C@H](CO)NC(=O)[C@H](CC(=O)O)NC(=O)[C@H](CC(C)C)NC(=O)[C@H](Cc1ccc(O)cc1)NC(=O)[C@H](CCCCN)NC(=O)[C@H](CO)NC(=O)[C@H](Cc1ccc(O)cc1)NC(=O)[C@H](CC(=O)O)NC(=O)[C@H](CO)NC(=O)[C@@H](NC(=O)[C@H](Cc1ccccc1)NC(=O)[C@@H](NC(=O)[C@H](C)NC(=O)[C@H](CCC(N)=O)NC(=O)C(C)(C)NC(=O)[C@@H](N)Cc1c[nH]cn1)[C@@H](C)O)[C@@H](C)O)C(=O)N[C@@H](C)C(=O)N[C@@H](C)C(=O)N[C@@H](Cc1c[nH]cn1)C(=O)N[C@@H](CC(=O)O)C(=O)N[C@@H](Cc1ccccc1)C(=O)N[C@H](C(=O)N[C@@H](CCC(=O)O)C(=O)N[C@@H](Cc1c[nH]c2ccccc12)C(=O)N[C@@H](CC(C)C)C(=O)N[C@@H](CC(C)C)C(=O)N[C@@H](CO)C(=O)N[C@@H](C)C(N)=O)C(C)C)C(=O)O
B5: Compound 9 (peptide)
peptide: H-HSQ[Aib]TFTSDYSKYLDSK([γGlu-Palmitoyl])AAHDFVEWLLSA-NH2
SMILES: CCCCCCCCCCCCCCCC(=O)N[C@@H](CCC(=O)NCCCC[C@H](NC(=O)[C@H](CO)NC(=O)[C@H](CC(=O)O)NC(=O)[C@H](CC(C)C)NC(=O)[C@H](Cc1ccc(O)cc1)NC(=O)[C@H](CCCCN)NC(=O)[C@H](CO)NC(=O)[C@H](Cc1ccc(O)cc1)NC(=O)[C@H](CC(=O)O)NC(=O)[C@H](CO)NC(=O)[C@@H](NC(=O)[C@H](Cc1ccccc1)NC(=O)[C@@H](NC(=O)C(C)(C)NC(=O)[C@H](CCC(N)=O)NC(=O)[C@H](CO)NC(=O)[C@@H](N)Cc1c[nH]cn1)[C@@H](C)O)[C@@H](C)O)C(=O)N[C@@H](C)C(=O)N[C@@H](C)C(=O)N[C@@H](Cc1c[nH]cn1)C(=O)N[C@@H](CC(=O)O)C(=O)N[C@@H](Cc1ccccc1)C(=O)N[C@H](C(=O)N[C@@H](CCC(=O)O)C(=O)N[C@@H](Cc1c[nH]c2ccccc12)C(=O)N[C@@H](CC(C)C)C(=O)N[C@@H](CC(C)C)C(=O)N[C@@H](CO)C(=O)N[C@@H](C)C(N)=O)C(C)C)C(=O)O
B6: Compound 10 (peptide)
peptide: H-H[Aib]QETFTSDYSKYLDSK([γGlu-Palmitoyl])AAHDFVEWLLSA-NH2
SMILES: CCCCCCCCCCCCCCCC(=O)N[C@@H](CCC(=O)NCCCC[C@H](NC(=O)[C@H](CO)NC(=O)[C@H](CC(=O)O)NC(=O)[C@H](CC(C)C)NC(=O)[C@H](Cc1ccc(O)cc1)NC(=O)[C@H](CCCCN)NC(=O)[C@H](CO)NC(=O)[C@H](Cc1ccc(O)cc1)NC(=O)[C@H](CC(=O)O)NC(=O)[C@H](CO)NC(=O)[C@@H](NC(=O)[C@H](Cc1ccccc1)NC(=O)[C@@H](NC(=O)[C@H](CCC(=O)O)NC(=O)[C@H](CCC(N)=O)NC(=O)C(C)(C)NC(=O)[C@@H](N)Cc1c[nH]cn1)[C@@H](C)O)[C@@H](C)O)C(=O)N[C@@H](C)C(=O)N[C@@H](C)C(=O)N[C@@H](Cc1c[nH]cn1)C(=O)N[C@@H](CC(=O)O)C(=O)N[C@@H](Cc1ccccc1)C(=O)N[C@H](C(=O)N[C@@H](CCC(=O)O)C(=O)N[C@@H](Cc1c[nH]c2ccccc12)C(=O)N[C@@H](CC(C)C)C(=O)N[C@@H](CC(C)C)C(=O)N[C@@H](CO)C(=O)N[C@@H](C)C(N)=O)C(C)C)C(=O)O
B7: Compound 11 (peptide)
peptide: H-H[Aib]Q[Aib]TFTSDYSKYLDSK([γGlu-Palmitoyl])AAHDFVEWLLSA-NH2
SMILES: CCCCCCCCCCCCCCCC(=O)N[C@@H](CCC(=O)NCCCC[C@H](NC(=O)[C@H](CO)NC(=O)[C@H](CC(=O)O)NC(=O)[C@H](CC(C)C)NC(=O)[C@H](Cc1ccc(O)cc1)NC(=O)[C@H](CCCCN)NC(=O)[C@H](CO)NC(=O)[C@H](Cc1ccc(O)cc1)NC(=O)[C@H](CC(=O)O)NC(=O)[C@H](CO)NC(=O)[C@@H](NC(=O)[C@H](Cc1ccccc1)NC(=O)[C@@H](NC(=O)C(C)(C)NC(=O)[C@H](CCC(N)=O)NC(=O)C(C)(C)NC(=O)[C@@H](N)Cc1c[nH]cn1)[C@@H](C)O)[C@@H](C)O)C(=O)N[C@@H](C)C(=O)N[C@@H](C)C(=O)N[C@@H](Cc1c[nH]cn1)C(=O)N[C@@H](CC(=O)O)C(=O)N[C@@H](Cc1ccccc1)C(=O)N[C@H](C(=O)N[C@@H](CCC(=O)O)C(=O)N[C@@H](Cc1c[nH]c2ccccc12)C(=O)N[C@@H](CC(C)C)C(=O)N[C@@H](CC(C)C)C(=O)N[C@@H](CO)C(=O)N[C@@H](C)C(N)=O)C(C)C)C(=O)O
B8: Compound 12 (peptide)
peptide: H-H[Aib]QFTFTSDYSKYLDSK([γGlu-Palmitoyl])AAHDFVEWLLSA-NH2
SMILES: CCCCCCCCCCCCCCCC(=O)N[C@@H](CCC(=O)NCCCC[C@H](NC(=O)[C@H](CO)NC(=O)[C@H](CC(=O)O)NC(=O)[C@H](CC(C)C)NC(=O)[C@H](Cc1ccc(O)cc1)NC(=O)[C@H](CCCCN)NC(=O)[C@H](CO)NC(=O)[C@H](Cc1ccc(O)cc1)NC(=O)[C@H](CC(=O)O)NC(=O)[C@H](CO)NC(=O)[C@@H](NC(=O)[C@H](Cc1ccccc1)NC(=O)[C@@H](NC(=O)[C@H](Cc1ccccc1)NC(=O)[C@H](CCC(N)=O)NC(=O)C(C)(C)NC(=O)[C@@H](N)Cc1c[nH]cn1)[C@@H](C)O)[C@@H](C)O)C(=O)N[C@@H](C)C(=O)N[C@@H](C)C(=O)N[C@@H](Cc1c[nH]cn1)C(=O)N[C@@H](CC(=O)O)C(=O)N[C@@H](Cc1ccccc1)C(=O)N[C@H](C(=O)N[C@@H](CCC(=O)O)C(=O)N[C@@H](Cc1c[nH]c2ccccc12)C(=O)N[C@@H](CC(C)C)C(=O)N[C@@H](CC(C)C)C(=O)N[C@@H](CO)C(=O)N[C@@H](C)C(N)=O)C(C)C)C(=O)O
B9: human GLP-1 (ligand)
peptide: RSLQDTEEKSRSFSASQADPLSDPDQMNEDKRHSQGTFTSDYSKYLDSRRAQDFVQWLMNTKRNRNNIAKRHDEFERHAEGTFTSDVSSYLEGQAAKEFIAWLVKGRGRRDFPEEVAIVEELGRRHADGSFSDEMNTILDNLAARDFINWLIQTKITDRK

Key:
[1] = biological target: human glucagon-like peptide 1 receptor (GLP-1R) (human, UniProt P43220); test: cell-based or functional assay
[2] = biological target: human glucagon receptor (glucagon-R) (human, UniProt P47871); test: cell-based or functional assay

Binder | EC50 (nM) GLP-1R, cAMP formation [1] | EC50 (nM) GluR, cAMP formation [2] | EC50 (nM) GluR, cAMP formation, earlier determination [2]
B1 | 0.1 nM | 0.48 nM | 
B2 | 0.16 nM | 0.15 nM | 
B3 | 0.01 nM | 26 nM | 
B4 | 8.2 nM | 3 nM | 23 nM
B5 | 16 nM | 30 nM | 
B6 | 20 nM | 15 nM | 
B7 | 22 nM | 5.1 nM | 
B8 | 12 nM | 25 nM | 
B9 |  | 100000 nM | 
